Values joined by “and” are separate entries in the source; they are usually repeats but may differ in a detail not shown here. Equal values may be shown once. ± gives the uncertainty stated by the source.
B1: library; the commonest letter at each place (parent)
chain: MKPVTLYDVAEYAGVSYQTVSRVVNQASHVSAKTREKVEAAMAELNYIPNRVAQQLAGKQSLLIGVATSSLALHAPSQIVAAIKSRADQLGASVVVSMVERSGVEACKAAVHNLLAQRVSGLIINYPLDDQDAIAVEAACTNVPALFLDVSDQTPINSIIFSHEDGTRLGVEHLVALGHQQIALLAGPLSSVSARLRLAGWHKYLTRNQIQPIAEREGDWSAMSGFQQTMQMLNEGIVPTAMLVANDQMALGAMRAITESGLRVGADISVVGYDDTEDSSCYIPPLTTIKQDFRLLGQTSVDRLLQLSQGQAVKGNQLLPVSLVKRKTTLAPNTQTASPRALADSLMQLARQVSRLESGQ

Tests used:
Conditions in all cases: with IPTG
IPTG [1] = variants of: B1
Procedure: (§1)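 LacI variants on the pVER plasmid regulate eYFP behind lacO in E. coli MG1655Δlac, grown in rich M9 at 37 °C with a 2-fold IPTG dilution series. After two 160-min growth steps, YFP is read by flow cytometry and calibrated to MEF. Bayesian MCMC fits of the Hill equation give G0, G∞, EC50 and n (posterior mean ± SD).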

IPTG [2] = variants of: B1; assay: Hill coefficient n (dimensionless); higher = steeper dose response
Procedure: as §1

IPTG [3] = variants of: B1; assay: basal output G0 (YFP, no IPTG) (log10 MEF); higher = higher reporter expression without inducer
Procedure: as §1

IPTG [4] = variants of: B1; assay: saturating output G-infinity (YFP) (log10 MEF); higher = higher reporter expression at saturating IPTG
Procedure: as §1

Variant	EC50 for IPTG (log10 µmol/L) (IPTG [1])	Hill coefficient n (IPTG [2])	basal output G0 (log10) (IPTG [3])	saturating output G-infinity (log10) (IPTG [4])
E11K A67P F161S A186V M230L D344N	0.815 ± 0.031	1.44 ± 0.11	3.548 ± 0.033	4.236 ± 0.006
S28G T34M Q60R A81S E100K L148V S221N V271L	0.477 and 0.475	1.41 and 2.02	3.92	4.46 and 4.41
K2R A92V R195P D278G	2.91 ± 0.042	2.03 ± 0.12	3.086 ± 0.01	4.436 ± 0.04
A72V A110V N142D S322L	0.557 ± 0.022	1.42 ± 0.1	3.778 ± 0.015	4.443 ± 0.0049
S70R S97T	1.16 ± 0.037	1.37 ± 0.1	3.15 ± 0.062	4.362 ± 0.012
V136E S279T	0.991 ± 0.11	2.42 ± 0.69	3.916 ± 0.02	4.035 ± 0.0064
Q291L	2.064 ± 0.017	1.61 ± 0.052	2.22 ± 0.21	4.407 ± 0.0075
I83F	1.29 ± 0.02	1.43 ± 0.06	2.91 ± 0.064	4.434 ± 0.0071
I83M	2.555 ± 0.019	1.48 ± 0.049	1.45 ± 0.61	4.268 ± 0.0077
A27T A87T S102G N316I L330P Q352R	1.04 ± 0.011	1.44 ± 0.038	3.624 ± 0.013	4.5229 ± 0.003
S69T I83M	2.293 ± 0.009	1.48 ± 0.033	1.02 ± 0.61	4.2699 ± 0.0031
S70R Q231R	1.509 ± 0.0064	1.47 ± 0.025	2.67 ± 0.037	4.251 ± 0.0022
S70R F161V	2.02 ± 0.013	1.29 ± 0.039	3.01 ± 0.037	4.3852 ± 0.0042
V80L I83M	2.444 ± 0.013	1.37 ± 0.045	0.521 ± 0.46	3.718 ± 0.0043
I83F G200C	1.913 ± 0.0091	1.48 ± 0.032	3.03 ± 0.023	4.4658 ± 0.0031
V80L	2.098 ± 0.0098	1.52 ± 0.036	1.75 ± 0.28	3.914 ± 0.0043
M42L V66I S93N D132V	1.646 ± 0.0068	1.59 ± 0.033	2.55 ± 0.058	4.1768 ± 0.0024
S70R I83F	1.24 ± 0.028	1.36 ± 0.079	3.18 ± 0.04	4.347 ± 0.0092
D88G	2.671 ± 0.015	1.41 ± 0.046	0.914 ± 0.56	3.854 ± 0.0057
D88N	2.843 ± 0.028	1.33 ± 0.086	0.96 ± 0.58	3.479 ± 0.0093
V80L L169P	2.47 ± 0.026	1.2 ± 0.077	1.86 ± 0.58	3.696 ± 0.0083

Variant	EC50 for IPTG (log10 µmol/L) (IPTG [1])	Hill coefficient n (IPTG [2])	basal output G0 (log10) (IPTG [3])	saturating output G-infinity (log10) (IPTG [4])
I83M S97T V136E	2.29 ± 0.05	0.765 ± 0.058	4.52 ± 0.0074	4.113 ± 0.012
S97T F161V	2.22 ± 0.032	1.59 ± 0.087	2.49 ± 0.21	4.47 ± 0.016
S93N V99E S102R L198Q S260F A337S	0.634 ± 0.024	1.31 ± 0.088	3.834 ± 0.012	4.443 ± 0.0046
D130E	1.902 ± 0.012	1.76 ± 0.057	2.29 ± 0.45	4.467 ± 0.0052
N113D D132N T154R M242I V313A K314N R340S	2.033 ± 0.011	1.64 ± 0.048	1.59 ± 0.65	4.226 ± 0.0048
S70R V150A S190T F226L	0.971 ± 0.021	1.48 ± 0.089	3.37 ± 0.035	4.221 ± 0.0049
V80L S279T	1.566 ± 0.0048	1.56 ± 0.023	2.07 ± 0.088	3.9365 ± 0.0017
K84E D88Y L90P Q153L A199V L342M R351P S358R	1.47 ± 0.046	0.795 ± 0.045	4.34 ± 0.01	3.722 ± 0.01
K203N D278V S280L I283V	1.8 ± 0.022	1.73 ± 0.085	3.192 ± 0.021	4.401 ± 0.009
S69F	1.05 ± 0.042	1.51 ± 0.14	2.66 ± 0.67	4.379 ± 0.015
S69T	1.7 ± 0.018	1.64 ± 0.06	2.07 ± 0.53	4.406 ± 0.0077
V94L V99I V104I L307F	1.47 ± 0.02	1.56 ± 0.1	2.75 ± 0.26	4.204 ± 0.0067
Y273H D278G Q335L E357G	3.07 ± 0.09	1.62 ± 0.14	2.16 ± 0.11	4.07 ± 0.075
L56M	1.05 ± 0.033	1.39 ± 0.12	3.976 ± 0.018	4.548 ± 0.0075
S70R S97T F161V	1.71 ± 0.068	1.16 ± 0.12	3.29 ± 0.059	4.429 ± 0.023
S70R Q181H	1.49 ± 0.03	1.46 ± 0.12	2.55 ± 0.62	4.269 ± 0.011
V9I R255C E259D T336I R355Q	1.05 ± 0.014	1.38 ± 0.044	3.374 ± 0.028	4.5116 ± 0.0042
S190C	2.091 ± 0.0053	1.65 ± 0.019	2.31 ± 0.049	4.4474 ± 0.0025
S70R N208Y	1.444 ± 0.0064	1.46 ± 0.026	2.66 ± 0.045	4.2522 ± 0.0022
V136E L169P	4.914 ± 0.028	2.33 ± 0.32	4.5429 ± 0.0026	1.85 ± 1.1
I64V V95M Q131R T141A D152E N208I A222T L295M K327N	0.469 ± 0.011	1.55 ± 0.075	3.589 ± 0.011	4.4894 ± 0.0031

Variant	EC50 for IPTG (log10 µmol/L) (IPTG [1])	Hill coefficient n (IPTG [2])	basal output G0 (log10) (IPTG [3])	saturating output G-infinity (log10) (IPTG [4])
S69T L169P	2.348 ± 0.019	1.43 ± 0.062	2.68 ± 0.082	4.362 ± 0.0071
V96E T154I S158R V238D M254I V264I	2.37 ± 0.029	1.37 ± 0.067	4.479 ± 0.01	3.19 ± 0.03
E44D R101G R303S R355L	1.62 ± 0.023	1.53 ± 0.093	2.44 ± 0.76	4.461 ± 0.0089
V301M	1.82 ± 0.049	1.53 ± 0.16	2.32 ± 0.83	4.469 ± 0.021
P285S V301M S308P M347V	0.927 ± 0.019	1.33 ± 0.057	3.595 ± 0.017	4.489 ± 0.0054
G200C	2.729 ± 0.016	1.58 ± 0.049	1.48 ± 0.68	4.489 ± 0.0069
V96M	2.315 ± 0.015	1.46 ± 0.048	1.73 ± 0.53	4.175 ± 0.006
I160N Q231H I289V D302E	2.6 ± 0.026	1.67 ± 0.073	2.06 ± 0.43	4.284 ± 0.015
V95M Q335R Q360R	2.01 ± 0.05	1.49 ± 0.13	2.02 ± 0.65	4.169 ± 0.022
S97T	1.59 ± 0.023	1.58 ± 0.067	2.61 ± 0.16	4.572 ± 0.01
E11K A27G K37N H112L A139V S191P	2.26 ± 0.028	1.4 ± 0.06	3.373 ± 0.0099	4.426 ± 0.012
V271M	2.089 ± 0.0097	1.64 ± 0.034	2.19 ± 0.19	4.413 ± 0.0046
S279T	1.481 ± 0.012	1.48 ± 0.03	2.68 ± 0.034	4.458 ± 0.0048
V80L V96E T154I S158R V238D M254I V264I	1.68 ± 0.055	1.16 ± 0.085	4.207 ± 0.016	3.07 ± 0.031
V24L V52M A72T A214V I268V K325Q P332H A337V	1.467 ± 0.0061	1.59 ± 0.03	2.62 ± 0.054	4.2255 ± 0.002
L56M Q317L	1.07 ± 0.085	1.44 ± 0.3	3.96 ± 0.044	4.485 ± 0.018
A109E D165V G166A R255C E259G	0.842 ± 0.018	1.33 ± 0.06	3.421 ± 0.019	4.417 ± 0.0048
S70R V96E T154I S158R V238D M254I V264I	3.671 ± 0.018	3 ± 0.23	4.516 ± 0.0061	3.396 ± 0.026
S69T S279T	1.28 ± 0.013	1.56 ± 0.053	2.7 ± 0.11	4.428 ± 0.0047
